The values that follow come from patent US8188225B2, “Inorganic phosphate assays” (Medical Research Council, priority 2005, dated 2012).

Where two headings read alike, the source gives them in different places.

A short description of series [1]: Fluorescence change of labelled PBP on Pi binding. The settings on record: for fluorescence increase with Pi: Pi-bound vs Pi-free, typical product, 10 mM PIPES pH 7.0. From the text: Fluorescence spectra were obtained under the same conditions. Excitation was at 555 nm. The fluorescence signals were normalised to 100%, representing the maximum intensity in the presence of Pi.

Series [2] is described as follows: Stopped-flow association kinetics of Pi with rhodamine-PBP. The format is binding. The source says:
A stopped-flow apparatus was used to determine association and dissociation kinetics of Pi from rhodamine-PBP.
A representative set of fluorescence traces is shown in FIG. 4A, all normalized to 100% for the initial intensity, but offset by 15% from each other. As the concentration of Pi and the rate increase, a significant proportion of the fluorescence trace is lost in the dead time of the stopped-flow instrument, causing an apparent decrease in intensity.
It is apparent that the rate reaches a limiting high value. This can be interpreted in terms of a two-step mechanism, binding itself (step 1), then a conformation change (step 2):
The fluorescence change occurs in step 2 and is likely to be concomitant with the closure of the binding cleft. It is this process that limits the overall rate at high Pi concentration. The data in FIG. 4B fitted to a hyperbola give 1/K1=2.2 μM and k+2+k−2=267 s^−1 (at 10° C.).

The nature of series [3]: Stopped-flow dissociation kinetics of Pi from rhodamine-PBP. The settings on record: 10° C.
Description: Absorbance spectra were obtained using a Beckman DU640 spectrophotometer. Fluorescence measurements were obtained on a Perkin Elmer LS50B or Cary Eclipse fluorimeter with xenon lamp. Stopped flow experiments were carried out on a HiTech SF61MX apparatus, with a mercury-xenon lamp and HiTech IS-2 software, a monochromator and 4 mm slits on the excitation light (550 nm for rhodamine) and a 570 nm cut-off filter on the emission. The stated concentrations are those in the mixing chamber, unless stated otherwise.
0.25 unit mL^−1 PNPase and 100 μM 7-methylguanosine were present with the wild-type PBP to ensure that it was free of Pi prior to mixing.
Series [4] can be described thus: Fluorescence titration of labelled PBP with Pi (binding capacity). The settings on record: 20° C. The method, then:
This fluorescence represents the value when approximately Pi-free. The lines shown in FIG. 3 are a best fit to data from 0 to 4 μM added Pi, and a horizontal line.

The conditions of series [5]: similar titration, reference 25; cited from earlier work.

B1: rhodamine-PBP: E. coli PBP Ala17Cys/Ala197Cys (17/197) mutant doubly labelled with 6-IATR (conjugate, UniProt P0AG82 26-346, looked up, variant A17C A197C)
Phosphate-binding protein PstS: EASLTGAGATFPAPVYCKWADTYQKETGNKVNYQGIGSSGGVKQIIANTVDFGASDAPLSDEKLAQEGLFQFPTVIGGVVLAVNIPGLKSGELVLDGKTLGDIYLGKIKKWDDEAIAKLNPGLKLPSQNIAVVRRADGSGTSFVFTSYLAKVNEEWKNNVGTGSTVKWPIGLGGKGNDGIAAFVQRLPGAIGYVEYCYAKQNNLAYTKLISADGKPVSPTEENFANAAKGADWSKTFAQDLTNQKGEDAWPITSTTFILIHKDQKKPEQGTEVLKFFDWAYKTGAKQANDLDYASLPDSVVEQVRAAWKTNIKDSSGKPLY
modifications: doubly labelled with 6-IATR rhodamine
notes: E. coli PBP Ala17Cys/Ala197Cys (17/197) mutant doubly labelled with 6-IATR
Take B1: the “fluorescence increase with Pi” value in series [1] is 18 fold. Also, the “fluorescence increase with Pi, maximum / best batch” value in series [1] (emission at 578 nm (λmax), depends on purity of doubly labelled species, listed as A17C-A197C) is on record as “up to 30 fold”. The “k+2+k−2 (conformation change step 2)” value in series [2] (hyperbola fit, 10° C., 10 mM PIPES pH 7.0) amounted to 267 s⁻¹. Moreover, the Kd was determined as 2200 nM in series [2] (hyperbola fit, 10° C., 10 mM PIPES pH 7.0, read-out: 1/K1 (binding step 1)); 60 nM in series [3] (read-out: overall dissociation constant k−2/k+2K1, from association and dissociation kinetics). In addition, the “association kinetics compared with MDCC-PBP” value in series [2] (rhodamine-PBP at 10° C. vs MDCC-PBP at 5° C.) is “slower than that found with MDCC-PBP at 5 °C”. In series [3] (best fit exponential, excess 10 μM wild-type PBP), the Pi dissociation rate came out at 6.6 s⁻¹. Further, the “binding capacity for Pi” value in series [4] was about 100%.

B2: MDCC-PBP: prior-art MDCC-labelled PBP, label linked via a chiral centre on a succinimide (conjugate, UniProt P0AG82 26-346, looked up)
Phosphate-binding protein PstS: EASLTGAGATFPAPVYAKWADTYQKETGNKVNYQGIGSSGGVKQIIANTVDFGASDAPLSDEKLAQEGLFQFPTVIGGVVLAVNIPGLKSGELVLDGKTLGDIYLGKIKKWDDEAIAKLNPGLKLPSQNIAVVRRADGSGTSFVFTSYLAKVNEEWKNNVGTGSTVKWPIGLGGKGNDGIAAFVQRLPGAIGYVEYAYAKQNNLAYTKLISADGKPVSPTEENFANAAKGADWSKTFAQDLTNQKGEDAWPITSTTFILIHKDQKKPEQGTEVLKFFDWAYKTGAKQANDLDYASLPDSVVEQVRAAWKTNIKDSSGKPLY
modifications: MDCC fluorophore label
notes: prior-art MDCC-labelled PBP, label linked via a chiral centre on a succinimide
As to B2, in series [5], the “binding capacity for Pi” value is 75%.

B3: RRC2M: here the product of A17C-A197C mutant PBP labelled with the maleimide Rhodamine Red C2 (conjugate, UniProt P0AG82 26-346, looked up, variant A17C A197C)
Phosphate-binding protein PstS: EASLTGAGATFPAPVYCKWADTYQKETGNKVNYQGIGSSGGVKQIIANTVDFGASDAPLSDEKLAQEGLFQFPTVIGGVVLAVNIPGLKSGELVLDGKTLGDIYLGKIKKWDDEAIAKLNPGLKLPSQNIAVVRRADGSGTSFVFTSYLAKVNEEWKNNVGTGSTVKWPIGLGGKGNDGIAAFVQRLPGAIGYVEYCYAKQNNLAYTKLISADGKPVSPTEENFANAAKGADWSKTFAQDLTNQKGEDAWPITSTTFILIHKDQKKPEQGTEVLKFFDWAYKTGAKQANDLDYASLPDSVVEQVRAAWKTNIKDSSGKPLY
modifications: Rhodamine Red C2 maleimide labels
Consider B3, for which the “fluorescence increase with Pi” value in series [1] is on record as “little fluorescence change”.

B4: K229C-E302C: E. coli PBP Lys-229/Glu-302 to Cys double mutant, doubly labelled with 6-IATR (conjugate, UniProt P0AG82 26-346, looked up, variant K229C E302C)
Phosphate-binding protein PstS: EASLTGAGATFPAPVYAKWADTYQKETGNKVNYQGIGSSGGVKQIIANTVDFGASDAPLSDEKLAQEGLFQFPTVIGGVVLAVNIPGLKSGELVLDGKTLGDIYLGKIKKWDDEAIAKLNPGLKLPSQNIAVVRRADGSGTSFVFTSYLAKVNEEWKNNVGTGSTVKWPIGLGGKGNDGIAAFVQRLPGAIGYVEYAYAKQNNLAYTKLISADGKPVSPTEENFANAACGADWSKTFAQDLTNQKGEDAWPITSTTFILIHKDQKKPEQGTEVLKFFDWAYKTGAKQANDLDYASLPDSVVCQVRAAWKTNIKDSSGKPLY
modifications: 6-IATR labels
notes: E. coli PBP Lys-229/Glu-302 to Cys double mutant, doubly labelled with 6-IATR
Turning to B4, in series [4], the “binding capacity for Pi” value was about 100%.
